{"source": "FireProtDB (doi:10.1046/j.1432-1327.1999.00918.x)", "proteins": {"B1": {"name": "Lysozyme C wild type, P61626 (protein)", "chain": "MKALIVLGLVLLSVTVQGKVFERCELARTLKRLGMDGYRGISLANWMCLAKWESGYNTRATNYNAGDRSTDYGIFQINSRYWCNDGKTPGAVNACHLSCSALLQDNIADAVACAKRVVRDPQGIRAWVAWRNRCQNRDVRQYVQGCGV"}}, "conditions": "Homo sapiens; pH 2.7; Thermal; DSC; glycine 0.05 M; reversible: yes; whole UniProt chain shown"}
{"protein": "B1", "values": [{"measurement": "Tm", "value": 64.9, "unit": "°C"}, {"measurement": "heat capacity change of unfolding", "value": 1.55, "unit": "kcal/mol/K"}, {"measurement": "unfolding enthalpy (calorimetric)", "value": 114, "unit": "kcal/mol"}]}
